Measured values as given in patent publication US5597705.

How the values were obtained:
[1] = test system: thyroid hormone (T3) receptor, GC2 nuclear extract (Rattus norvegicus); experiment: pulldown; conditions: equilibrium binding constant by ABCD assay; buffer A, poly(dI-dC), 22 C
[2] = test system: thyroid hormone (T3) receptor, GC2 nuclear extract (Rattus norvegicus); experiment: cell_activity; conditions: G29TK one copy, T3 stimulation of CAT in GC2 cells; three copies five-fold
[3] = test system: glucocorticoid receptor alpha (hGR, pRShGR-alpha) (Homo sapiens); experiment: cell_activity; conditions: CAT activity with DEX in CV-1 cells; wild-type reference

Substance: G209-146 (rat GH -209 to -146)
- Kd [1]: 1.4 nM

Substance: G186-158 (rat GH -186 to -158)
- activity [2]: 2.9 fold

Substance: MMTV LTR (GMCAT)
- activity [3]: 100%
